Experimental data: patent US20130142802A1 (published 2013)

B5: soluble FGFR2 IIIc-Fc fusion protein (Fc fusion)
chain: RPSFSLVEDTTLEPEGAPYWTNTEKMEKRLHAVPAANTVKFRCPAGGNPMPTMRWLKNGKEFKQEHRIGGYKVRNQHWSLIMESVVPSDKGNYTCVVENEYGSINHTYHLDVVERSPHRPILQAGLPANASTVVGGDVEFVCKVYSDAQPHIQWIKHVEKNGSKYGPDGLPYLKVLKAAGVNTTDKEIEVLYIRNVTFEDAGEYTCLAGNSIGISFHSAWLTVLPAPGREKEITASPDYLERSDKTHTCPPCPAPELLGGPSVFLFPPKPKDTLYITREPEVTCVVVDVSHEDPEVKFNWYVDGVEVHNAKTKPREEQYNSTYRVVSVLTVLHQDWLNGKEYKCKVSNKALPAPIEKTISKAKGQPREPQVYTLPPSREEMTKNQVSLTCLVKGFYPSDIAVEWESNGQPENNYKTTPPVLDSDGSFFLYSKLTVDKSRWQQGNVFSCSVMHEALKFHYTQKSLSLSPGK
notes: Extracellular domain of human FGFR2 beta (IIIc), aa 1-262, Arg-Ser linker, human IgG1 Fc; signal peptide 1-21 left out; also called FGFR2 beta-ECD; FGFR2c beta-EDC

What was measured:
[1] = target: T1, Flag-FGFR2-IIIb expressed on CHO cells (human, UniProt P21802 22-821); test: immunocytochemical staining of CHO cells transiently expressing FGFR2IIIb
T1 construct: whole, on cells; also called CHO-FGFR2-IIIb; FGFR2-IIIb-expressing CHO cells; not shown: Flag-tag at the N-terminus
T1 chain: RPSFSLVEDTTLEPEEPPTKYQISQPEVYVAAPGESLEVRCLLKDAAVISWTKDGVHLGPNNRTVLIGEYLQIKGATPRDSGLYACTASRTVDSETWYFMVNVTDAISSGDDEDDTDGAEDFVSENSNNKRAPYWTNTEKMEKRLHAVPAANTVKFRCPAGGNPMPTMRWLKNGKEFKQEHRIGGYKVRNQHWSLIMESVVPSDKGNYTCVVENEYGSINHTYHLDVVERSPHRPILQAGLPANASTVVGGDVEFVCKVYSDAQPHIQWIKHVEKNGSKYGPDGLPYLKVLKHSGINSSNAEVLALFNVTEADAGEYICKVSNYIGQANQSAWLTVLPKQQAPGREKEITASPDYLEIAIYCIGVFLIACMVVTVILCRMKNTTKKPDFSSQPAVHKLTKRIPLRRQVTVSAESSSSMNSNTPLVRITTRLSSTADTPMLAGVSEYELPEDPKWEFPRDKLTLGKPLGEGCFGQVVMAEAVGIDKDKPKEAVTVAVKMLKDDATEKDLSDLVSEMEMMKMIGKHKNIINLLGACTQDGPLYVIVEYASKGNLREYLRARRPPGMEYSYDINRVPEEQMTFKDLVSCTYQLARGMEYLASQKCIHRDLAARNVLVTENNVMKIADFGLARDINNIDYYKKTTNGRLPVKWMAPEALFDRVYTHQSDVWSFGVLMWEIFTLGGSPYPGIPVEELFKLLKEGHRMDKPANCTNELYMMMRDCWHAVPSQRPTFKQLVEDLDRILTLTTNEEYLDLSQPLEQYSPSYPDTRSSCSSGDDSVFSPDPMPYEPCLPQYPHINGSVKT

[2] = target: B5; test: competition ELISA: antibody pre-incubated with FGFR2IIIc-Fc, then added to ligand-coated plate (legend paragraph 175: FGF8; paragraph 640: FGF2); bound receptor detected
FGFR2 IIIb-Fc [3] = target: T2, FGFR2 IIIb-Fc (human); test: ELISA: soluble scFv on coated protein (2 ug/ml)
T2 construct: also called FGFR2IIIb beta-ECD; FGFR2IIIb-hFc
T2 chain: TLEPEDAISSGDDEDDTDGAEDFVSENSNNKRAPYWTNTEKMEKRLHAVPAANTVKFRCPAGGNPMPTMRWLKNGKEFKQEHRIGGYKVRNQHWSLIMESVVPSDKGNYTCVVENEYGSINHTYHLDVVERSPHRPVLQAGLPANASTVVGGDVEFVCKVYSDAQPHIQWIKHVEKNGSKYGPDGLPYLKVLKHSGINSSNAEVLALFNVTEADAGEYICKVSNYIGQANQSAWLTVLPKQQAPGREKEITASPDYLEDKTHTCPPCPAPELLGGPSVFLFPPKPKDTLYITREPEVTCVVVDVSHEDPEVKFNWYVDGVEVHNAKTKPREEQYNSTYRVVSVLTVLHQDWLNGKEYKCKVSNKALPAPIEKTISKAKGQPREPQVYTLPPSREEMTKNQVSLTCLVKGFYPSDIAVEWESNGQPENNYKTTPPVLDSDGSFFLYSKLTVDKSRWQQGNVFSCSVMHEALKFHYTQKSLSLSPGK

human ovalbumin (OA) [4] = target: human ovalbumin (OA) (human); test: ELISA: soluble scFv on coated protein (2 ug/ml)
[5] = target: B5; test: ELISA: soluble scFv on coated protein (2 ug/ml)
FGFR2 IIIb-Fc [6] = target: T2, FGFR2 IIIb-Fc; test: ELISA with soluble scFv, plate coated with FGFR2 IIIb Fc fusion (whole extracellular domain)
human ferritin (Fer) [7] = target: T3, human ferritin (Fer) (human, UniProt P02794 2-183; P02792 2-175, Natural ferritin is a 24-subunit shell of H and L chains in a tissue-dependent ratio, with an iron core. The letters carry one copy of each subunit.); test: phage ELISA on coated protein
T3 construct: also called Feritin

human ovalbumin (OA) [8] = target: human ovalbumin (OA) (human); test: phage ELISA on coated protein
[9] = target: T4, 128AA-mFc (128-amino acid loop-3 fragment of FGFR2IIIc fused to mouse Fc) (human); test: phage ELISA on coated protein
T4 chain: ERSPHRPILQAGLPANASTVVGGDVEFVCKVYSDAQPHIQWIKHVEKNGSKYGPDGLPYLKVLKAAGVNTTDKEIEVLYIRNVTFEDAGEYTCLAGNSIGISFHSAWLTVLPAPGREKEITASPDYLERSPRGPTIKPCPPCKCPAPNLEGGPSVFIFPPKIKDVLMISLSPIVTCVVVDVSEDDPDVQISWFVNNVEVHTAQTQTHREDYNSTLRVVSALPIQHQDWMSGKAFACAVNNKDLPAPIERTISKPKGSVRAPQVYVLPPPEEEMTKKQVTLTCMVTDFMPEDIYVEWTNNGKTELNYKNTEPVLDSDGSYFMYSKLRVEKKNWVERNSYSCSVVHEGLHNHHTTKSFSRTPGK

human ferritin (Fer) [10] = target: T3, human ferritin (Fer); test: phage ELISA on coated protein; remark: listed apart in the source
FGF8b = target: T5, FGF8b (UniProt P55075-3 23-215); test: ELISA: receptor Fc fusion (4 ug/ml) on coated FGF8b, anti-human IgG Fc-HRP
T5 construct: Coated on ELISA plates; also called ligand protein FGF8b
T5 sequence (looked up): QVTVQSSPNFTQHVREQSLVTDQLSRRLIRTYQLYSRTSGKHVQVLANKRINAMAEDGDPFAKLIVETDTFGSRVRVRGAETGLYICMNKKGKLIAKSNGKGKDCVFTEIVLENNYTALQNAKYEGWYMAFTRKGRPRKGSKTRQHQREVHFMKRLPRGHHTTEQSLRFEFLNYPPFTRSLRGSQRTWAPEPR

[11] = target: T6, dcFv-01 (Fc-fusion of human scFv Clone 1) (human); test: competition ELISA: antibody pre-incubated with FGFR2IIIc-Fc, then added to ligand-coated plate (legend paragraph 175: FGF8; paragraph 640: FGF2); bound receptor detected
T6 construct: scFv-1 fragment fused to the N-terminus of human IgG1 Fc; bivalent; also called dcFv-1; clone dcFv-1; not shown: human IgG1 Fc of vector pFUSE-hIgG1e2-Fc2(IL2ss) (Invivogen)

B1: dcFv-8 (Fc-fusion of human scFv Clone 8) (Fc fusion)
chain: QSVLTQPPSVSAAPGQKVTISCSGSSSNIGNNYVSWYQQLPGTAPKLLIYDNNKRPSGIPDRFSGSKSGTSATLAISGLQSEDEADYYCAAWDDSLNGVVFGGGTKLTVLGSGGSTITSYNVYYTKLSSSGTQVQLVQSGAEVKKPGSSVKVSCKASGGTFSSYAISWVRQAPGQGLEWMGRIIPIFGTANYAQKFQGRVTITADESTSTAYMELNSLRSEDTAVYYCARDRWDWNDAFDIWGQGTMVTVSS
notes: Bivalent fusion construct to human IgG Fc; also called clone dcFv-8; not shown: human IgG1 Fc of vector pFUSE-hIgG1e2-Fc2(IL2ss) (Invivogen)
- binding result [1]: no binding
- IC50 (read off the curve) [2]: ~0.3 nM

B2: human scFv clone 8, soluble (scFv)
scFv: QSVLTQPPSVSAAPGQKVTISCSGSSSNIGNNYVSWYQQLPGTAPKLLIYDNNKRPSGIPDRFSGSKSGTSATLAISGLQSEDEADYYCAAWDDSLNGVVFGGGTKLTVLGSGGSTITSYNVYYTKLSSSGTQVQLVQSGAEVKKPGSSVKVSCKASGGTFSSYAISWVRQAPGQGLEWMGRIIPIFGTANYAQKFQGRVTITADESTSTAYMELNSLRSEDTAVYYCARDRWDWNDAFDIWGQGTMVTVSS
notes: Tags are not described; also called scFv-8; Atto-HuMab-08
- OD (450 nm) (FGFR2 IIIb-Fc [3]): 0.003
- OD (450 nm) (human ovalbumin (OA) [4]): 0.028
- OD (450 nm) [5]: 0.8
- binding result [1]: no binding
- binding result (FGFR2 IIIb-Fc [6]): no binding

B3: human scFv clone 6, soluble (scFv)
scFv: QSVLTQPPSVSAAPGQKVTISCSGSSSNIGNNYVSWYQQLPGTAPKLLIYDNNKRPSGIPDRFSDSKSGTSATLGITGLQTGDEADYYCGTWDSSLSAVVFGGGTKLTVLGSGGSTITSYNVYYTKLSSSGTEVQLVQSGAEVKKPGSSVKVSCKASGGTFSSYAISWVRQAPGQGLEWMGRIIPILGIANYAQKFQGRVTITADKSTSTAYMELSSLRSEDTAVYYCARDPLLWSYFDYWGQGTLVTVSS
notes: Tags are not described; also called scFv-6; Atto-HuMab-06
- OD (450 nm) (FGFR2 IIIb-Fc [3]): 0.012
- OD (450 nm) (human ovalbumin (OA) [4]): 0.015
- OD (450 nm) [5]: 0.571

B4: human scFv clone 6, phage-displayed (scFv)
scFv: QSVLTQPPSVSAAPGQKVTISCSGSSSNIGNNYVSWYQQLPGTAPKLLIYDNNKRPSGIPDRFSDSKSGTSATLGITGLQTGDEADYYCGTWDSSLSAVVFGGGTKLTVLGSGGSTITSYNVYYTKLSSSGTEVQLVQSGAEVKKPGSSVKVSCKASGGTFSSYAISWVRQAPGQGLEWMGRIIPILGIANYAQKFQGRVTITADKSTSTAYMELSSLRSEDTAVYYCARDPLLWSYFDYWGQGTLVTVSS
notes: also called scFv-6; Atto-HuMab-06
- binding result (human ferritin (Fer) [7]): no binding
- OD (450 nm) (human ovalbumin (OA) [8]): 0.018
- OD (450 nm) [9]: 0.106
- OD (450 nm) (human ferritin (Fer) [10]): 0.006

Binder: B5
- binding result (FGF8b): binds
- binding result [11]: binds
